Data reported in article PMC7097781 (Nature Structural & Molecular Biology, 2013).

Biological target: T1, human MacroD2 macrodomain (aa 7–243), wild type (human, UniProt A1Z1Q3 7-243)
T1 sequence (looked up): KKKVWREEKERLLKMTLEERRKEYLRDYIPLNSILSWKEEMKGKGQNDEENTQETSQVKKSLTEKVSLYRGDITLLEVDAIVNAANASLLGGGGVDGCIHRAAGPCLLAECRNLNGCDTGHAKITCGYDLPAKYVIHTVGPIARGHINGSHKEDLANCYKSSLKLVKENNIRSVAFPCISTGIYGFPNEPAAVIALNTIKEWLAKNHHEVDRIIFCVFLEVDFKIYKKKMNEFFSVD
Assay: pull-down

B1: GST-PARP10 catalytic domain (aa 818–1025), ADP-ribosylated (domain or fragment, UniProt Q53GL7 818-1025, looked up)
chain: NNLERLAENTGEFQEVVRAFYDTLDAARSSIRVVRVERVSHPLLQQQYELYRERLLQRCERRPVEQVLYHGTTAPAVPDICAHGFNRSFCGRNATVYGKGVYFARRASLSVQDRYSPPNADGHKAVFVARVLTGDYGQGRRGLRAPPLRGPGHVLLRYDSAVDCICQPSIFVIFHDTQALPTHLITCEHVPRASPDDPSGLPGRSPDT
modifications: mono-ADP-ribosylated (automodified; single ADPr units on glutamate residues); sites not stated
B1: binds.
